Measurements published in paper PMC3946611, “hCLE/C14orf166 Associates with DDX1-HSPC117-FAM98B in a Novel Transcription-Dependent Shuttling RNA-Transporting Complex” (PLoS ONE, 2014).

Target: the molecule itself
Experiment: native gel or EMSA; purified hCLE-CBD, dialyzed, non-denaturing gel, Western blot against hCLE

B1: hCLE-TAP tagged protein, purified as hCLE-CBD (natural protein, human, UniProt Q9Y224 1-244, looked up)
chain: MFRRKLTALDYHNPAGFNCKDETEFRNFIVWLEDQKIRHYKIEDRGNLRNIHSSDWPKFFEKYLRDVNCPFKIQDRQEAIDWLLGLAVRLEYGDNAEKYKDLVPDNSKTADNATKNAEPLINLDVNNPDFKAGVMALANLLQIQRHDDYLVMLKAIRILVQERLTQDAVAKANQTKEGLPVALDKHILGFDTGDAVLNEAAQILRLLHIEELRELQTKINEAIVAVQAIIADPKTDHRLGKVGR
notes: hCLE/C14orf166, human; In the cells the protein carries the whole TAP tag (hCLE-TAP); after the TEV step of the purification it is hCLE-CBD; also called hCLE/C14orf166; protein C14orf166 (CLE); source: HEK293T, transfected with pChCLE-TAP; TAP purified (IgG-Sepharose, Calmodulin-Agarose) from total, nuclear or cytosolic extracts
- stoichiometry N: 2
